The assay deals with HA head of H1N1 A/Solomon Islands/3/2006 (Influenza A virus, A/Solomon Islands/3/2006 (H1N1)). The experiment in a line: BLI.

On to CH65 Fab, for which the koff (usually a measure of how fast the partners let go of each other) is 0.013 s⁻¹ and the kon – broadly, a measure of how fast the partners come together – stood at 42900 M⁻¹ s⁻¹.

The values are drawn from article PMC4368477.
